According to patent publication US20050053918A1, “Method of identifying peptides capable of binding to MHC molecules, peptides identified thereby and their uses” (priority 2001, published 2005):

Columns and labels:
HLA-A2.1 = system: T1, HLA-A2.1; test: Stabilization of cell surface HLA-A2.1 by peptide binding on RMA-S-HHD cells (FACS); type: cell-based, human; conditions: 100 μM peptide, 2 h 26° C. + 2 h 37° C., FACS with W6/32 mAb
T1 construct: expressed in transfected cells; host or cells: RMA-S-HHD (murine TAP-2 deficient lymphoma, C57BL/6 origin)
Description: Synthetic peptides were added to […] RMA-S-HHD cells to a concentration of […] followed by incubation for two hours at 26° C. and two hours at 37° C. […] The HLA-A2.1 peptide derived from gp100 served as a positive control and unloaded RMA-S-HHD cells as a negative control.
RMA-S-HHD cells were washed three times with PBS followed by incubation overnight in FCS-free IMDM medium at 26° C. Synthetic peptides were added to 10^6 cells at a concentration of 100 μM. The cells were incubated for two hours at 26° C. followed by two hours at 37° C. […] (Sigma).
Another approach to ascertain that the identified peptides were indeed MHC bound peptide antigens, their capacity to bind tightly and stabilize cell surface HLA-A2.1 was tested by reconstitution into empty MHC on the surface of RMA-S-HHD cells.

soluble HLA-A2 = soluble HLA-A2 (Homo sapiens, UniProt P04439, D140Y/D185E/D98H/E176V/E277Q/G131W/G231S/I119V/I121R/I166T/I218V/N151K/N90K/P208A/P217A/Q86G/Q94H/R138H/R169H); test: Appearance of peptides recovered from soluble HLA-A2 of cancer cell lines (ESI-MS/MS); conditions: MCF-7, MDA-231, PC3, UCI-107
From the text: Cell lines were co-transfected with plasmid HLA-A2/Q10^b and with phβ2m, which conferred resistance to the antibiotic G418 or transfected only with the plasmids sHLA-A2, sHLA-B7 and sHLA-Cw4 that contained the antibiotic resistance. Cells were electroporated by use of a Gene Pulser (Bio-Rad) set at […] 960 μF. Transfected cell clones were selected in G418 antibiotic and screened for those secreting sMHC to the growth medium. […] Color was developed with ABTS (Sigma) catalyzed by streptavidin peroxidase (Sigma).
Cultured cells, expressing the soluble MHC were grown to confluency in 150 mm plates. The culture medium was collected and residual cells were removed by centrifugation. […] The antibodies were coupled to NHS-activated agarose (Pharmacia) or to protein A Sepharose (Sigma) with n-methylpipelimidate (Sigma). The columns were washed with 0.5 M NaCl, 20 mM, Tris pH 8. The MHC molecules were eluted from the column with 0.1 M acetic acid at pH 3. Peptides were separated from the MHC complexes by boiling for five minutes in 10% acetic acid followed by ultra-filtration through a 3 kDa Microcon (Amincon).
The MHC bound peptides were resolved by reverse-phase HPLC on a 0.1 ID fused silica capillaries with length of about 30 cm (J&W) slurry packed with POROS 10 R2 (PerSepetive Biosystems). The capillaries were fitted with electrospray needle made from 36-gauge stainless tubing (Small Parts Inc. Miami Lakes, Fla.). A Rheodyne 9125 HPLC injector fitted with a 20 μl loop was used for loading the column. The peptides were resolved by a relatively long (90 minutes) linear gradient of 5 to 50% acetonitrile with 0.1% acetic acid, at a flow rate of about 1 μl/minute. The flow was electrosprayed directly from the HPLC column into an ion trap mass spectrometer (LCQ, Finnigan). The mass spectrometry analysis was done in the positive ion mode, using repetitively a full MS scan usually between 450 to 1500 atomic mass units (amu) followed by collision-induced decomposition (CID) of the dominant ion selected from the previous MS scan. In some cases the full MS was performed with a narrower mass range to reduce the number of detected peptides. The peptides were identified by comparing their MS and CID data to the calculated MS and CID of the proteins in the Genpept databank (www.ncbi.nlm.nih.gov/genpept) using the Sequest software (obtained from Finnigan, San Jose, Calif.). The number of times each peptide was fragmented by CID was usually limited to two by dynamic exclusion, a feature of the Xcalibur control software the LCQ mass spectrometer (Finnigan).

[1] = system: EL4-HHD cells loaded with the synthetic peptides; test: Cytotoxic T lymphocytes assay after immunization of HHD transgenic mice; type: in vivo; conditions: compared to negative control peptide ALLCAPSLL; effector-to-target ratio 50:1 shown
From the text: Cells were loaded separately with individual peptides, washed and injected in four groups: 1-p1028 (SEQ ID NO:13) alone, 2-p1258 (SEQ ID NO:24) alone, 3—pool of peptides: p913 (SEQ ID NO:5), p958 (SEQ ID NO:9), p989 of CD59 (SEQ ID NO:11) and p989 of FLI (SEQ ID NO:12), 4—peptides p1031 (SEQ ID NO:14), p1121 (SEQ ID NO:22) and p1068 (SEQ ID NO:16). Unloaded EL4-HHD or targets cells not loaded with the peptides were used as negative controls. An effector-to-target ratio of 50:1 is shown.
Transgenic mice expressing a single chain HLA-A2.1/Db-β2m which are double knockout for H-2 Db and for β2m (HHD mice) were immunized four times intra-peritoneally at 7-day interval with 2×10^6 irradiated (5,000 rad) RMA-S-HHD-B7.1 cells loaded for two hours at 26° C. followed by two hours at 37° C. with 100 μM of the synthetic peptides. Ten days after the last immunization the spleens were removed from the vaccinated mice. Splenocytes were re-stimulated with 100 μM of synthetic peptides for five days. Viable lymphocytes were separated by lympholyte-M (Cadarlane, Homby, Canada) and resuspended in RPMI-HEPES. Cytotoxic activity was measured as in [26] by admixing the lymphocytes at different ratios with 5×10^3 EL4-HHD cells grown in medium containing ^35S methionine and then loaded with the synthetic peptides.
To further evaluate the affinity of the peptides to the HLA-A2 and to obtain some insight into their immunogenic potential, selected peptides were tested for their ability to induce an immune response in HLA-A2 transgenic mice. It was assumed that only peptides that could be effectively presented and remain tightly bound to the cells would be capable of inducing an immune response in these mice. The same synthetic peptides that were used for the FACS analysis were used for immunization of the HHD transgenic mice, which express the human HLA-A2.1/Db-β2m single chain. To immunize the mice, the HHD culture cells were loaded with the different peptides and then injected to the HHD mice. The immune response in the mice was followed by the appearance of CTLs specific for these peptides. Some of the peptides were indeed capable of inducing an immune response, which both authenticate them as MHC bound peptides and gives an indication about their immunogenic potential.

sHLA-A2 = molecular target: T2, sHLA-A2 (human); test: sMHC eluate MS, UCI-101
T2 construct: also called sA2; sMHC-A2

GVYDGEEHSV [from MAGE XP-2 protein (MAGE-B2)]
binding affinity to MHC by reconstitution and stabilization of empty MHC on the surface of RMA-S-HHD cells (HLA-A2.1): normal | appearance of peptide in soluble HLA-A2 from cell lines of different tissue origin (soluble HLA-A2): detected only in the ovarian cancer cells (UCI-107)

ALSDHHIYL [from aldolase A]
lysis of EL4-HHD cells loaded with the peptides by CTLs of immunized HHD mice [1]: significant lysis

SLLGGDVVSV [from TSC-22 related protein]
appearance of peptide in soluble HLA-A2 from cell lines of different tissue origin (soluble HLA-A2): detected at high level in the two-breast cancer cells (MCF-7 and MDA-231), but was not observed in the ovarian (UCI-107) and the prostate (PC3) cancer cells

NLTISDVSV [from MUC1]
appearance of peptide in soluble HLA-A2 from cell lines of different tissue origin (soluble HLA-A2): recovered only from MCF-7 grown without estrogen

TLWVDPYEV [from BTG2]
lysis of EL4-HHD cells loaded with the peptides by CTLs of immunized HHD mice [1]: significant lysis

SLIGHLQTL [from protein tyrosine posphatase]
appearance of peptide in soluble HLA-A2 from cell lines of different tissue origin (soluble HLA-A2): detected only in the breast cancer cell MDA-231

GLIEKNIEL [from DNA (cytosine-5-)-methyltransferase]
lysis of EL4-HHD cells loaded with the peptides by CTLs of immunized HHD mice [1]: significant lysis

FLFDGSPTYVL [from fatty acid synthase]
lysis of EL4-HHD cells loaded with the peptides by CTLs of immunized HHD mice [1]: significant lysis

ALFGALFLA
appearance of peptide in soluble HLA-A2 from cell lines of different tissue origin (soluble HLA-A2): recovered only from PC3 cells

GLLGTLVQL (also called p913)
binding result (sHLA-A2): binds

LLLDVPTAAVQA (also called p1210; p11210)
binding result (sHLA-A2): binds

YLLPAIVHI
binding result (sHLA-A2): binds

SLFPGKLEV (also called p989 of FLI)
binding result (sHLA-A2): binds

LLDVPTAAV (also called p898)
binding result (sHLA-A2): binds

FLFDGSPTYVL (also called p1258)
binding result (sHLA-A2): binds

ALSDHHIYL (also called p1068)
binding result (sHLA-A2): binds

SLWGQPAEA (also called p958)
binding result (sHLA-A2): binds

SLSEKTVLL (also called p989 of CD59)
binding result (sHLA-A2): binds

LLLDVPTAAV (also called p1011)
binding result (sHLA-A2): binds

ILDKKVEKV
binding result (sHLA-A2): binds

GLYPGLIWL (also called p1031)
binding result (sHLA-A2): binds

GLIEKNIEL (also called p1028)
binding result (sHLA-A2): binds

SLLPPTALVGL (also called p1080)
binding result (sHLA-A2): binds

SLLPPDALVGL (also called p1094)
binding result (sHLA-A2): binds
